Patent US20250352662A1 (MERSANA THERAPEUTICS, published 2025)
Values joined by “and” are separate entries in the source; they are usually repeats but may differ in a detail not shown here. Equal entries are not always repeated.

T1: human NaPi2b on OVCAR3 human ovarian cancer cells (human, UniProt O95436 1-690)
T1 construct: also called SLC34A2; sodium-dependent phosphate transport protein 2B
T1 sequence: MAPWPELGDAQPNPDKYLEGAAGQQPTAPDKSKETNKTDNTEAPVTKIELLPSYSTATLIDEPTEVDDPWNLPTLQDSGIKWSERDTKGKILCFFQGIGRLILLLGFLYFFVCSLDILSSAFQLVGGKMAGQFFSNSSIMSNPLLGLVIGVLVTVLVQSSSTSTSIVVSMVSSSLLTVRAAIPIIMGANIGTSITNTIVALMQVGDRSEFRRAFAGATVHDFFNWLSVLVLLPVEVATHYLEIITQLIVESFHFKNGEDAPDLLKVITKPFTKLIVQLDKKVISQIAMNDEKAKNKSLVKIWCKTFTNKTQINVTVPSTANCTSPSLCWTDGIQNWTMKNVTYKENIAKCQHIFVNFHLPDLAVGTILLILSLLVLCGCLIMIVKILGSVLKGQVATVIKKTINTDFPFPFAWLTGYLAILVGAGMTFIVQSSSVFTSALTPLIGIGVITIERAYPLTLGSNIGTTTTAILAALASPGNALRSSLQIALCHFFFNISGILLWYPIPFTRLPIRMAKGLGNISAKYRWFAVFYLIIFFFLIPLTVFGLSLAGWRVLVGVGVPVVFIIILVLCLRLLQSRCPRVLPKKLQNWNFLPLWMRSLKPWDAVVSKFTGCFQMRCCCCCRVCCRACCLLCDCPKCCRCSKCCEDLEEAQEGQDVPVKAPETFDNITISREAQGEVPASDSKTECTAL


Biological target: T1, human NaPi2b on OVCAR3 human ovarian …
Assay: flow cytometry on OVCAR3 cells, 1 h on ice, goat anti-human IgG-Alexa-647 detection, MFI; mean EC50
Method: OVCAR3 cells were grown to ˜80-95% confluency in RPMI 1640 medium supplemented with FBS (20%) and penicillin/streptomycin (1%). Cells were harvested and added to wells of a 96-well U bottom plate (50,000/well). The cells were pelleted (300×g, 5 minutes) and resuspended in solutions of test articles as indicated in Table 18 at concentrations ranging between 0.01 nM and 300 nM and incubated on ice for 1 hour.

| Binder | EC50 |
| --- | --- |
| XMT-1535 mIgG2a (antibody, V domains shown, Unconjugated; variable domains are those of XMT-1535 by name only; also called XMT-1535 hIgG1-mIgG2a) VH: QVQLVQSGAEVVKPGASVKMSCKASGYTFTGYNIHWVKQAPGQGLEWIGAIYPGNGDTSYKQKFRGRATLTADTSTSTVYMELSSLRSEDSAVYYCARGETARATFAYWGQGTLVTVSSG VL: DIQMTQSPSSLSASVGDRVTITCSASQDIGNFLNWYQQKPGKTVKVLIYYTSSLYSGVPSRFSGSGSGTDYTLTISSLQPEDFATYYCQQYSKLPLTFGQGTKLELKR | 4.13 nM |
| XMT-1535 mIgG2a Conjugate 32d, DAR 8.8 (antibody, V domains shown, elsewhere called chimeric hIgG1-mIgG2a; the variable domains are those of XMT-1535 by name only) VH: QVQLVQSGAEVVKPGASVKMSCKASGYTFTGYNIHWVKQAPGQGLEWIGAIYPGNGDTSYKQKFRGRATLTADTSTSTVYMELSSLRSEDSAVYYCARGETARATFAYWGQGTLVTVSSG VL: DIQMTQSPSSLSASVGDRVTITCSASQDIGNFLNWYQQKPGKTVKVLIYYTSSLYSGVPSRFSGSGSGTDYTLTISSLQPEDFATYYCQQYSKLPLTFGQGTKLELKR | 2.99 nM |
| XMT-1535 Conjugate 8b-3, DAR 6.4 (antibody, human IgG1, kappa, STING agonist linker-drug on cysteine thiols of the reduced antibody, positions not given; STING agonist linker-drug (Compound 7) joined through maleimide to cysteine thiols of the TCEP-reduced antibody, positions not given; DAR 6.4 per antibody) heavy: not shown light: DIQMTQSPSSLSASVGDRVTITCSASQDIGNFLNWYQQKPGKTVKVLIYYTSSLYSGVPSRFSGSGSGTDYTLTISSLQPEDFATYYCQQYSKLPLTFGQGTKLELKRRTVAAPSVFIFPPSDEQLKSGTASVVCLLNNFYPREAKVQWKVDNALQSGNSQESVTEQDSKDSTYSLSSTLTLSKADYEKHKVYACEVTHQGLSSPVTKSFNRGEC | 8.13 nM |
| XMT-1535 (antibody, human IgG1, kappa, Unconjugated antibody, IgG1; also called anti-NaPi2b antibody; NaPi2b mAb) heavy: not shown light: DIQMTQSPSSLSASVGDRVTITCSASQDIGNFLNWYQQKPGKTVKVLIYYTSSLYSGVPSRFSGSGSGTDYTLTISSLQPEDFATYYCQQYSKLPLTFGQGTKLELKRRTVAAPSVFIFPPSDEQLKSGTASVVCLLNNFYPREAKVQWKVDNALQSGNSQESVTEQDSKDSTYSLSSTLTLSKADYEKHKVYACEVTHQGLSSPVTKSFNRGEC | 4.29 nM and 3.74 nM |
